Test results: patent US20170097353A1, “Polymer Viral Compositions” (The Regents of the University of California, priority 2015, published 2017)
“Also recorded” adds a separate entry of the source. Ends that are not written are not given here. * marks the point of attachment. Pent4ynoyl = C#CCCC(=O)*

Legend:
[1] = Dynamic light scattering (DLS) size measurement; format: physicochemical
Description: For determination of size, 1 mL of each sample was measured at the same concentration as used for the biological assay. Each sample was measured at least three times at 25° C., with each individual size measurement being the average of 10 runs.

[2] = target: T1, PSMA on LNCaP cells (Homo sapiens, UniProt Q04609); assay: Cell-based phage ELISA, recognition of cell surface PSMA by PEGylated ligands on phage; settings: for binding affinity for cell surface PSMA: PEGylated ligand 2 variants, specific/non-specific attachment, with/without PEG4 linker, FIG. 5A; for binding affinity of dual ligand combinations: 2:1 dual ligand combinations on phage, FIG. 5B
T1 construct: endogenous in cells; host or cells: LNCaP (also LNCaP CSS), glutaraldehyde-fixed on Maxisorp plates
Description: Day 1: The cell-based ELISA was performed as previously described by Watanabe et. al. with the following modifications. Cells were detached with Trypsin-EDTA, resuspended in PBS, and then collected by centrifuging at 1200 rpm for 5 min. The cells were further washed with PBS and then concentrated as in the previous step. The concentration of the cells was adjusted to 4.5×10^6 cells/mL in PBS using a hemocytometer, and 100 μL was aliquoted to specific wells of a 96-well microtiter plate (Maxisorp plates from Nunc). The Maxisorp plates used here have a high protein-binding capacity. Thus, the plates can be used to run assays with either the cells or the phage immobilized in the wells. Next, 50 μL of a 0.15% glutaraldehyde in PBS solution was added to the wells at 4° C., and the solution was gently mixed by pipetting. The ELISA plate was then centrifuged at 1200 rpm for 10 min at 4° C., followed by overnight incubation at 4° C.
Day 2: The cell solution was gently removed, and the wells were blocked with 200 μL/well of blocking buffer containing 100 mM glycine, 1% gelatin and 0.1% w/v BSA (bovine serum albumin) in PBS. The plate was incubated overnight (˜20-22 h) at room temperature.
Separately, phage were prepared before attachment to PEG and PEGylated ligands. Phage (10 nM in 100 μL of PBS) and 1 μL of K14-alkyne (525 μM in water) were thoroughly mixed by pipetting ˜25 times. For phage wrapped with PEGylated ligands, phage were mixed with 0.75 μL of K14-Cys (525 μM in water). For mixed wrapping on the phage surface, 0.5 μL of K14-alkyne was pre-mixed with 0.75 μL of K14-Cys, and then mixed with 100 μL of 10 nM phage. The solution was shaken at room temperature for 15 min on an orbital shaker. Next, 2 μL of PEGylated ligand (625 μM in water) was added to the appropriate wells. For the dual ligand combinations, the PEGylated ligands were pre-mixed in the desired ratio (a 2:1 molar ratio for example), and then 2 μL of the mixture was added to the appropriate wells. The solutions were gently mixed by pipetting, and incubated overnight at 4° C.
Day 3: Next, the click reaction was performed, as previously described, but with the following modifications. To buffer the pH, triethylammonium acetate was added to a final concentration of 50 mM, followed by the addition of 1.5 μL of 1 mM azide-functionalized PEG. The solutions were mixed by pipetting. Next, ascorbic acid was added to a final concentration of 1 mM and the solutions were mixed by gently pipetting. Then, copper sulfate was added to a final concentration of 1.5 mM, followed by pipetting to mix the solutions. Water was added to the other wells to maintain consistent phage concentrations. The plate was incubated at room temperature for 30 min.
The wells of the ELISA plate were then incubated with the phage samples. The blocking buffer was removed and the wells were gently washed two times with PBS. Next, the phage solution was added to the respective wells and incubated for 45 min. The phage solution was removed, and the wells were washed three times with 300 μL/well of wash buffer PT (0.05% Tween-20 in PBS), once with PBS, and then incubated with horseradish peroxidase-conjugated anti-M13 antibody (100 μL/well, 1:5000 dilution in PBS) for 40 min. The wells were washed three times with PT and once with PBS. The plate was then developed by incubating with HRP substrate solution (100 μL/well; 1 mg/mL o-phenylenediamine dihydrochloride and 0.02% w/v H2O2) in citric acid buffer (50 mM citric acid, 50 mM Na2HPO4, pH 5.0). The HRP activity was measured spectrophotometrically at 450 nm using a microtiter plate reader (Bio-Tek). The absorbance at 630 nm was subtracted from the absorbance at 450 nm to eliminate background.

[3] = target: T2, PSMA (Homo sapiens, UniProt Q04609); settings: genetically encoded, phage-displayed ligands [4,10]; cited from earlier work
T2 construct: The effective detection of PSMA shed by LNCaP cells, in androgen sensitive and androgen independent cells; endogenous in cells; host or cells: culture supernatant of LNCaP and LNCaP CSS cells
T2 sequence (Q04609 whole entry): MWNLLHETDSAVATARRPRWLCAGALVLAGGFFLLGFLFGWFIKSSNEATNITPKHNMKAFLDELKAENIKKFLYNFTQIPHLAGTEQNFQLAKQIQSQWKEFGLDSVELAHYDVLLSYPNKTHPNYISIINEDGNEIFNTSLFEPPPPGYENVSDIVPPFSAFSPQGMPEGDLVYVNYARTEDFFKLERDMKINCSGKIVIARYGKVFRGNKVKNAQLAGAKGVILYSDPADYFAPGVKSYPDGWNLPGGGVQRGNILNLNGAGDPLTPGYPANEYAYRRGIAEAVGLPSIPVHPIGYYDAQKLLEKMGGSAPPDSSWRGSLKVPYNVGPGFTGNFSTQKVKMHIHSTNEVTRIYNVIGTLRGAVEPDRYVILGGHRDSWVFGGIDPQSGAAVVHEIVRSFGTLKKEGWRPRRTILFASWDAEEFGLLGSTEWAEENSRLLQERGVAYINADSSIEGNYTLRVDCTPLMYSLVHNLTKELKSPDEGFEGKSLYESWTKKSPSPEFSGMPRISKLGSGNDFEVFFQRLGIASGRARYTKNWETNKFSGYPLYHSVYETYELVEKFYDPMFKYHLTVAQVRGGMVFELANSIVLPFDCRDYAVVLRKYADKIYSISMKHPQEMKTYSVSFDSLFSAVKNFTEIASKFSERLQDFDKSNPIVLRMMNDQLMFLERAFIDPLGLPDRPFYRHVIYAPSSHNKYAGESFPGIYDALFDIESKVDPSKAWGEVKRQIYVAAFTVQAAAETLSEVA

T1 sequence (Q04609 whole entry): as above

In the case of “PEGylated oligolysine: K14-alkyne pre-conjugated to azide PEG7, 22 or 45 by click reaction, then applied to phage (Pent4ynoyl-KKKKKKKKKKKKKK-NH2; also: alkyne click-conjugated (triazole) to azide PEG7, 22 or 45)”, the “change in the cross-sectional diameter of the treated phage” value ([1]; DLS, phage treated with pre-formed PEGylated oligolysine (data not shown)) is reported as “no significant change”.

In the case of “K14-alkyne: alkyne-functionalized oligolysine (K14) peptide that wraps the phage, SEQ ID NO:1 (Pent4ynoyl-KKKKKKKKKKKKKK-NH2; SMILES C#CCCC(=O)N[C@@H](CCCCN)C(=O)N[C@@H](CCCCN)C(=O)N[C@@H](CCCCN)C(=O)N[C@@H](CCCCN)C(=O)N[C@@H](CCCCN)C(=O)N[C@@H](CCCCN)C(=O)N[C@@H](CCCCN)C(=O)N[C@@H](CCCCN)C(=O)N[C@@H](CCCCN)C(=O)N[C@@H](CCCCN)C(=O)N[C@@H](CCCCN)C(=O)N[C@@H](CCCCN)C(=O)N[C@@H](CCCCN)C(=O)N[C@@H](CCCCN)C(N)=O)”, the “PSMA recognition / binding affinity with PEG spacers” value ([2]; dual ligand combination P100SP-P4-2+P100SP-P4-1 with or without spacers, LNCaP cells, FIG. 6) is reported as “no effect on binding affinity”.

For “P100NSP-2: PEG100, non-specific attachment to ligand 2; bioconjugated to phage wrapped with K14-Cys (SECVEVFQNSCDW-NH2; not fully specified (N-terminus); cysteine pairing not given here; also: PEG100 attached non-specifically)”, the “binding affinity for LNCaP cells” value ([2]; phage wrapped with K14-Cys and individual PEGylated ligand, FIG. 14) was “higher affinity for LNCaP cells compared to P100NSP-1”.

For “P100SP-2: PEG100, specific attachment to ligand 2; bioconjugated to phage wrapped with K14-Cys (SECVEVFQNSCDW-NH2; not fully specified; cysteine pairing not given here; also: specific N-terminal attachment to Mal-PEG100 via triazole)”, the “binding affinity for cell surface PSMA” value [2] was “higher binding affinity for cell surface PSMA than P100NSP-2”.

For “P100NSP-2+P100NSP-1: phage wrapped with 2:1 dual ligand combination of P100NSP-2 and P100NSP-1 (peptide 1 SECVEVFQNSCDW; peptide 2 CALCEFLG)”, the “binding affinity of dual ligand combinations” value ([2]; LNCaP cells) was “only a modest improvement” and the “recognition of PSMA on LNCaP cells” value ([2]; different ratios of the two PEGylated, phage-wrapped ligands, FIG. 4) was “maximize the recognition of PSMA on LNCaP cells”.

For SECVEVFQNSCDW [ligand-2], the “higher affinity to PSMA than ligand-1” value [3] is given as > 100 fold.

In the case of “P100NSP-P4-2+P100NSP-P4-1: phage wrapped with dual ligand combination, non-specific attachment with PEG4 linker (peptide 1 SECVEVFQNSCDW-NH2; peptide 2 CALCEFLG-NH2; not fully specified (N-terminus); cysteine pairing not given here; also: PEG100 non-specific attachment with PEG4 linker)”, the “binding affinity of dual ligand combinations” value ([2]; LNCaP cells) is reported as “drop in affinity; also recorded: affinity equivalent to P100NSP-P4-2”.

With “K14-Cys: oligolysine (K14) peptide with cysteine, wraps the phage, SEQ ID NO:2 (KKKKKKKKKKKKKKC; not fully specified (C-terminus))” the average cross-sectional diameter ([1]; DLS backscatter mode, scattering angle 173°, FIG. 3A) was 50.0 nm.

With “P100SP-P4-2+P100SP-P4-1: phage wrapped with dual ligand combination in a 2:1 ratio, specific attachment with PEG4 linker (peptide 1 SECVEVFQNSCDW-NH2; peptide 2 CALCEFLG-NH2; not fully specified (N-terminus); cysteine pairing not given here; also: mixture of two PEG100 conjugates (ligand 2 and ligand 1, 2:1) with PEG4 linker, specific N-terminal triazole attachment)” the “binding affinity of dual ligand combinations” value ([2]; LNCaP cells) was “significant increase in binding affinity”.

In the case of “P100SP-P4-2: PEG100, specific attachment, PEG4 linker, ligand 2; on phage wrapped with K14-Cys (SECVEVFQNSCDW-NH2; not fully specified (N-terminus); cysteine pairing not given here; also: PEG100, specific attachment, PEG4 linker)”, the “binding affinity for cell surface PSMA” value [2] is reported as “most effective architecture” and the “increase in cross-sectional diameter” value ([1]; DLS backscatter mode, relative to previous wrapping step, FIGS. 3A-3B) is reported as 10 nm.
